Measured values reported in IntAct's records for PubMed 12907709.

B1: DNA-directed RNA polymerase II subunit rpb7 (Schizosaccharomyces pombe (strain ATCC 38366 / 972)), O14459 (parent)
chain: MPFFLKELSLTISLHPSYFGPRMQDYLKAKLLADVEGTCSGQYGYIICVLDSNTIDIDKGRVVPGQGFAEFEVKYRAVLWRPFRGEVVDAIVTTVNKMGFFANIGPLNVFVSSHLVPPDMKFDPTANPPNYSGEDQVIEKGSNVRLKIVGTRTDATEIFAIATMKEDYLGVL
partner: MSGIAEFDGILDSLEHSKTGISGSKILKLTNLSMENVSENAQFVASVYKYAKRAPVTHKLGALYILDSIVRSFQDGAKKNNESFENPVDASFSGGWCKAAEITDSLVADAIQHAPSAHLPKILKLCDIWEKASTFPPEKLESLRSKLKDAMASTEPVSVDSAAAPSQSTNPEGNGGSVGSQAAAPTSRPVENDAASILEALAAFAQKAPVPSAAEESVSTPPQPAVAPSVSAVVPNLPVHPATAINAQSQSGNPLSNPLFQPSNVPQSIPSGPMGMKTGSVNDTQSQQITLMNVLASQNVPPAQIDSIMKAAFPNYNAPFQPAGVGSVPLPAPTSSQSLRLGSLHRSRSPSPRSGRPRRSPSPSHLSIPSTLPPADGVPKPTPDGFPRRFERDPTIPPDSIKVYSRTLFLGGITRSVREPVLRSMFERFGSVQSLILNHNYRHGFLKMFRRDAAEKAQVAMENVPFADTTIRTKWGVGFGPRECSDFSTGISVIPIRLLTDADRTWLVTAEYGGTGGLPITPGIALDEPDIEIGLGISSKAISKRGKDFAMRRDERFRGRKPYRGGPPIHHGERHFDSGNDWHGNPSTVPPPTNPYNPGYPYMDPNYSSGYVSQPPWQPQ

Variants of: B1
Conditions: with seb1_schpo seb1, Q9UTE3

effect of a mutation on the interaction	Variant
disrupting interaction	MPFFLKELSLTISLHPSYFGPRMQDYLKAKLLADVEGTCSGQYGYIICVLDSNTIDIDKGRVVPGQGFAEFEVKYRAVLWRPFRGEVVDAIVTTVNKMGFFANIGPLNVFVSSHLVPPDMKFDPTANPPNYSGEDQVIEKGSNVRLKIVGTRTDATEIFAIATMKRAYLGVL [E166R;D167A]
